Reference: the DeepSol protein solubility set

assay: soluble on expression in E. coli; label from the status in PepcDB or PDB records

| Sequence | soluble on expression in E. coli |
| --- | --- |
| MPFPFGKSHKSPADIVKNLKESMAVLEKQDISDKKAEKATEEVSKNLVAMKEILYGTNEKEPQTEAVAQLAQELYNSGLLSTLVADLQLIDFEGKKDVAQIFNNILRRQIGTRTPTVEYICTQQNILFMLLKGYESPEIALNCGIMLRECIRHEPLAKIILWSEQFYDFFRYVEMSTFDIASDAFATFKDLLTRHKLLSAEFLEQHYDRFFSEYEKLLHSENYVTKRQSLKLLGELLLDRHNFTIMTKYISKPENLKLMMNLLRDKSRNIQFEAFHVFKVFVANPNKTQPILDILLKNQAKLIEFLSKFQNDRTEDEQFNDEKTYLVKQIRDLKRPAQQEA | soluble |
| MAGRKSSRTAERVPTTQKPERKSAILSPHDELRERLLETAIDMKENIPQRNTRNSSVGSQKSDCSETRKRRSTKEGPAAKRHSGEKHRNGSREDSLEYISDDREVGSSSSQSSRTRGQPLPAMPEEEEVFDKSSSSDNLAESEESHEMVRLEERQDIEEEIEDDFDDEEEDVVNDKEEYEEIESEDEDDYPVQNEGFAVTKRLMNDEHMVTAPTFLSTAKCDGIGSPTKVWSLMVKRDEIPRATRFLLGNHPDMDDEKRRILIDWMMEVCESEKLHRETFHLAVDYVDRYLESSNVECSTDNFQLVGTAALFIAAKYEEIYPPKCIDFAHLTDSAFTCDNIRTMEVLIVKYIGWSLGPITSIQWLSTYLQLLGTGKKNKSDHYEEQNMYVPELLRSEYLEMCKILDFLLFEIDSFTFSYRTIAAAVLFVNYEPTCAVEKATGFMQAQLEKVIEYVEPVCRAFAKQRQLLDDVIPKHESIKSDDSHNIQVYVKRSSMEPIVKSERERIQHLKARRLHPQRLF | not soluble |
| MGSDKIHHHHHHMIKELKTLIAVAREGTFAAAGDRIGLTQAAVSAQMQRLEAQLGVELFDRKGRSAQLNRMGQQVLLQGQELVRLYGSLGNSATGSAPNVLVTIGAIASVQRSFLPDALALFHRQFPQCRTRVIPGLSMDLVNQVDAGEVDLAAIIRPPFSLHSDLRWTTLMREPYRLIVPADLQGEDWAELISSQPFIRYDRSSFGGRQVDRFLRQTHVSLREVCELDELDAIVKLVANGVGVALVPETATIQAWPAGVRAVNLGPHTFHRDIGLVHRARRSLTEPVNVLAQLLTAQVQDTQ | not soluble |
| SPEAQTEIEESILEEYAIWRKNTPFLYDLVVTKPLEWPSLTCQWLPEKREFPNSDYYLEKIILGTQTDGNAQNYLMLAQVRLPNEKAEVDGSAYNNKENGSYGGFGMGQQGKIDIVQRIKHDGDVNRARYMPQNPQIIATKTVSGEVHIFDISKHPLKPPANNVASPQLRLRSPQKEGFGLCWNPNQEGRIISAGEDRRIFLWDILGGGDKEEYVNPLNVYGGHTDVVGDVSFHAHSQYLFGSVGDDRKIMLWDTRSSDVEHPSQEVEAHKDVINCLAFNPFSEHVLITGSADTTLCLWDLRSLNQPLHVFESHPGEILQALWSPFHETLFASCGKDRQVRIWDLSRIGEEQEPEDAEDGPPELLFVHGGHTSTVQELSWNPNEPFVIASVADDNILQLWSMAQHIYEDTDDESMTTELKEEDLE | soluble |
| MKTNVIIDGDACPVVNSVIELTKGTGIFVTILRSFSHFSQQIQPEHVKIVYVDDGPDAVDYKIVELASNNDIVITQDYGLASLLIDKVHTVMHHKGNIYHSNNIQSLLDQRYLNAQIRRRGGRHKGPPPFTTEDRLKFEHAFRKIINQILEHHHHHH | soluble |
| SDYDADELAEALQPVIVNTPHLKKPIGLIGAKGEFHPVLLAETSFPVQKKLTLKQAKGDFLIGVYEGDHHIEEKTLEPIPKEENAEEDDESEWSDDEPEVVREKLYTLGTKLMELGIKNANGVEIIFNINKDGALRVTARDLKTGNAVKGEL | not soluble |
| MGSDKIHHHHHHMISRTIQQLEDALGQQLFYRNTRAITPTESGKLFFEYAKRITEQFDEAQKALQDKTIEPSGLVRINAPVFFGQRHIAPWLAGLSERYPRLLIELIQTDEFIDPLRESTDLIFRIGALTDSSFHARIFGTQKYHLAASPQYVAKYGTLDHPTELNQHKCLVYKGFEGPNRWLVRKPNEEWVHYPITPLLSSNNAESLMTAALHSMGIVLFPDWLIGEALKKGDLIKLLPEYEVAIKSPPQHIAAIYPNVRHPPLNIRAVIDYFAEIYGDTPYWQN | not soluble |
| MSLKSDNDVVITGVGIVTCHGVGSQAHVALLSGAAVPEPVVETEKFKPYPVHPMPEIDWSAQIAKRGDQRQMENWQRLGVFAAGLALDDAGLKENTEACATMDMIVAAGGGERDINVDTLIVDEALKRNDREKLLNEKLTTELRPTLFLAQLSNLMAGNISIVHKVTGSSRTFMGEEAAGISAVETAFHRIRSGESSHALVGGAFSAERPDMILLFEAIGAHAQGGWQPLWSRGDQDGGGMISGSLGAFLVLESRKHASERGARIYARIDAIEGDRGSRDDGKMEKRMERLLAPAKDSAATVVFSGASGYDEVTVREKDILEKVLPNSVIRGFGGVTGHGLEAQFPLGLALAALTLESGAKVPTFDAAAEKPMGEAATEAVVTTVGHVRGEGVAVLSRDVEGHHHHHH | soluble |
| MAHHHHHHMKLQKQQQQKRMTGLKEKRIACRLTYIWLSGRDSHHDIRSKDRTAYLTTEEVAKHPKELLADGIFPVWNFDGSSTKQVCGADTEILLNPVNAYHCCLPRLSTTVPWILVLAECCLPNGEPTNDNSRAVARRIFERAPEEHPWFGMEQEFFLIKDGHPYGWPPRGFPAPQGPYYCSTGCLCVHGRRYVDLHYEVCLQMGLNISGTNAEVAPGQWEFQVGPCEGIEMGDQLTVARWVLLRILEDDGLDADYRAKPIRGEWNGSGLHTNFSTASTRNENGLSVIYEYVERLKKTISKDIVLYGAENNERLTGKYETSKPNEVTAGVGTRGTSIRIPNAVAAERKGYMEDRRPAGDADPYLVSARLFASCVCIESPELDLISSFHERSWMKFGDLS | soluble |
| MITQVNQLDELQLKDLKTLRAECKKNDGSIPNLYIHILKQHRSLPTSFLYYQNGALIGFLSIYFFYDDAVEVAVLVSPQYRRQGIAKQLIKEALPLIKSQNYFNLIFSCPSRLNDNWLTSKGFTYLHSEYFMERDDLNPILDYIRPLSFRMATLEDIPILCGLDEVCFPDKNQDSVHRFQQILNEREYEIVIAMLNNHPIGKSHIRWQTKRATLSDIAILPKEQGKGFGSALIAHCINMILSEGKSRVDLDVETHNKKALNLYIQLGFHIQNACDYWSINVNQLAK | not soluble |
| MSLNVFDATLKRLEYIFEEFDKVYFSFSGGKDSGLMVQLANLVAEKLDRNFDLLILNIEANYTATVDFIKKIEQLPRVKNIYHFCLPFFEDNNTSFFQPQWKMWDPSEKEKWIHSLPKNAITLENIDDGLKKYYSLSNGNPDRFLRYFQNWYKEQYPQSAISCGVGIRAQESLHRHSAVTKGENKYKNRCWINITLEGNILFYPLFDWKVGDIWAATFKCELEYNYIYEKMYKIGYKYRDMREGHHHHHH | soluble |
| MIITLFVMVSGNKVKYEGSGKSGLWMSNLEKSDKTSIGPNYFLNLYWQGSKKEEKWTVVERITLYVDGEKYQDDNVDEYDLSEYTGDEMPGGGRMEDHISTFDYMPEDEVIGHDVLVKVEWRTGQKKQTEAIKLHKKPWYKKLEHHHHHH | not soluble |
| MGSDKIHHHHHHVLIGLSALSFSYRCGLIGRGTPRAVSHPLDIEGVMALASRAGLQSVEFPLSLLPDLSPGRLSALRERLTLCGLTPVADSDIVDVDTLRAHIPAAAMIGAHVLRVLISPVLEGYRRPFTTDWPAHLADVTDRLRAVIDLAAEHNIILAVENHQDATSADLAAICAAVDSPHIGVCFDAVNCLVVGETPYAALERLGPLIRNVHLADYETYPTTQGWRLVRCALGEGDLDIRRLFHLIEHYAPDVACQIELVSHSARHVRILDDDWWQGYPPCDVREVLPVLRLFAQTMRLRDDDWRTPWERGAGEEQISLYEDQQYATSIAYLRTIGILPRL | not soluble |
| MKKNLLAIALGSVIALTAAPYSLAANDSTIQSSADYSQLVTKRQVVDQLLNDAVEAFKSPARISHAGFTAKMPSNMEIVTDRLLEAYQLEPYRTDLLISAANAQIYNKNVDRAIELFEQALAVAPDDVDLHAYLAVWQRFKGNQAESDQHMATLAKLNAGKAADINRIFDTVDRVLATPLKEKADKGKLDNKGAIVTLGYALNPDGSMHQILVERLETTLAMAKANPDAIIILTGGVPKNHKTEGKLMADWLIGKGVSKDRIIEENYATSTVGNALFSSYALARHNIKHATIISSASHVRRGQTLFEIASWQTGPQGITFDTVSYPDKPLKDLAKASESELLGIYRDALRTYGMWSYRSYPLESRLEHHHHHH | soluble |
| MAHHHHHHMASVSSGVPLTAPSAQKLLQSVKYILLDVDGVVWSGPRVLPNIPQTLQYLRSLGKEIRFLTNNASVSRSSLAQLFRQRGIEGVKESEVYNSGYAAALRLRRICGAAEGNQERQEGNEPTSDKRLVRGNVFVIGEEGLHEELQRVLAPGYITYGMELHDAEKVGGYNSANAATAWKERILPAPLRQLKPPDGITDYGRGISLTDLSPVAVVVGLDLHFNMLKLAYASLCLHRGAGSNTDSEGDRIGGDRDRTPDKGLQKPVCFIATNEDPQIPIGEEGLLLPGAGGMVSALRTVSGRNPDAVCGKPHVDMARIMFEAEGITDARQCLMVGDRLTTDIAFGNAAGCRTLFVLSGAESMADIARAKSTGDSQLLPEFVAPSLASLMPDARDD | soluble |
| MGSDKIHHHHHHLSCCGQIGKITVGNGIWGILEEGMQSKAGTADQGWALEEKLDEFNRHQHPFNGSGADESFAYVIKKGDQVVGGVAASSDDNAIGYIELLWVDETMRRQGLGRALLATVEQALQAAGCKRVRLETFDYQAPAFYLENGYHEFGKLNYDYAGVIEYFFVKMLSLPIGYNIPPAFSIEAAEDLAMEAIENKLHAYNVKMKPLLQQKMGVTFTFLAEENGQCIGGIFGYSTMYKIGYIESLWVAETNRHAGVGTALVDVLVNALKDFGCPIVHLDTMSYQGAAFYKALGFEQFGQLTYPEIDAAEVFFVKHLVSVGERTINANK | not soluble |
| MKVFGISGSPRLQGTHFAVNYALNYLKEKGAEVRYFSVSRKKINFCLHCDYCIKKKEGCIHKDDMEEVYENLIWADGVIIGTPVYQGNVTGQLKTLMDRCRAILAKNPKVLRGRVGMAIAVGGDRNGGQEIALRTIHDFFIINEMIPVGGGSFGANLGATFWSKDRGKKGVEEDEEGLRVLRKTLNRFYEVLKEKRGLLEHHHHHH | not soluble |
| MVGPATGRIVVTSRIVVLGGGFGGMYAARALKRRLGRAAEIELVNAENYFVFQPLLPEVGAGSITPAHAVSPLRFLLRDVFVRKATVDSVDFDRRLVTVFQGVQRRPTEIGYDHLVIALGQAADLSKMPGLEEHALTMRTLEDARRLRAHVIGQLEHAQITRLPEVKRGALTFCVVGGGFSGIETAGEMKDLIDRSLKFYPDIDPSEVRMIVVEFADRILGEMSQGLADYATRTLRERGIEVKLGTGVASATGTQLVTTTGEVIDTRTIVATIGNAPSPVVRRMGLPSERGRISVDRTLAVKGRSDVWALGDCALIALKDAPQGPRDYAPPTAQFAVREAEQLAENIASTLTGGTPQPFDYRSKGALASLGARKGVAQVFGLELKGFPAWLLWRFYYLAFLPGLTTRIFVLLNWFMDGISPRSVVQLHTRSVPPTRYVRYRAGDVIYEAGNRSDGFYTVVTGAVEMTRTDPETGLPQVRTIGPGGHFGERLILGATRRQTSVRAAEDTKVLVMDREEFLKLADSFQAFRDYFGPYMARHGMTWPPLGETDGQAAPKPVPTEKDLEHHHHHH | not soluble |
| GMDKLNEYRTKVRQLLTKHLQYKPSYGDVEVEQIFDEEHDHYQIISVGWNNQHRIYGPIMHLDIKNNKIWIQQNTTEADIALELMEMGIDKQDIVIGFHTPKMRQLSGFAVE | soluble |
| MFSGHQLKTARLSKGITQSELGRLLHVNKMTISNWEKGKNIPNEKHLNALLHLFNVTSDYFDPNYRLLTPYNQLTISNKEKVIGYSERLLNHQIDKKSKDLIDKPSQLYAYRVYESLSAGTGYSYFGDGNFDVVFYDEQLEYDFASWVFGDSMEPTYLNGEVVLIKQNSFDYDGAIYAVEWDGQTYIKKVFREDEGLRLVSLNKKYSDKFAPYSEEPRIIGKIIANFRPLEI | not soluble |
